Source: patent US20080267948A1, “Croos-B Structure Binding Compounds” (priority 2005, published 2008)

B1: Recombinant β2GPI: recombinant human β2-glycoprotein I made using insect cells (protein, UniProt P02749 20-345, looked up)
Beta-2-glycoprotein 1: GRTCPKPDDLPFSTVVPLKTFYEPGEEITYSCKPGYVSRGGMRKFICPLTGLWPINTLKCTPRVCPFAGILENGAVRYTTFEYPNTISFSCNTGFYLNGADSAKCTEEGKWSPELPVCAPIICPPPSIPTFATLRVYKPSAGNNSLYRDTAVFECLPQHAMFGNDTITCTTHGNWTKLPECREVKCPFPSRPDNGFVNYPAKPTLYYKDKATFGCHDGYSLDGPEEIECTKLGNWSAMPSCKASCKVPVKKATVVYQGERVKIQEKFKNGMLHGDKVSFFCKNKEKKCSYTEDAQCIDGTIEVPKCFKEHSSLAFWKTDASDVKPC
modifications: recombinant, insect cells

Assays:
[1] = target: T1, glycated haemoglobin (Hb-AGE) (Homo sapiens, UniProt P68871+P69905); assay: ELISA binding of recombinant human BiP to Hb-AGE, with or without tPA or K2P-tPA; conditions: cell culture supernatant of HEK 293E cells
T1 construct: purchased Sigma-Aldrich H7379
From the text: Absorbance was read at 450 nm.
The threefold diluted cell supernatants were applied to the ELISA plate in duplicates and BiP binding was subsequently measured as described above. Coat efficiency was checked with specific anti-AGE antibody, anti-albumin antibody and anti-Hb antibody.

[2] = target: T2, glycated albumin (BSA-AGE) (Bos taurus, UniProt P02769); assay: ELISA binding of recombinant human BiP to BSA-AGE, with or without tPA or K2P-tPA; parameters: species or system bovine; conditions: cell culture supernatant of HEK 293E cells
T2 construct: purchased Sigma-Aldrich A-7906
Protocol: Proteins at 5 μg/ml were coated for 1 h at room temperature with agitation, in Microlon high-binding ELISA plates (Greiner) in 50 mM NaHCO3 pH 9.6. Buffer was coated as negative control. A twofold dilutions series of cell culture supernatant of HEK 293E cells over-expressing BiP was also coated to the plate for anti-FLAG-tag antibody control purposes. Plates were washed and blocked with ½*Blocking reagent (Roche). Undiluted cell culture supernatant enriched with 0.1% Tween20 was added to the wells with immobilized protein ligands and incubated for 1 h at room temperature with agitation. Medium was discarded and the plate was washed with PBS with 0.1% v/v Tween20. Mouse monoclonal anti-FLAG-tag antibody (Sigma, A8592, anti-FLAG M2PO conjugate) was diluted 1000× in PBS/0.1% Tween20 and added to all wells, including those that are coated with cell culture supernatant. After a 1 h incubation at room temperature with agitation and after washing, wells were overlayed with 3000× diluted RAMPO (DAKOCytomation) in PBS/0.1% Tween20. […] Absorbance was read at 450 nm.
Hb-AGE, Hb, BSA-AGE, BSA and buffer were coated. The threefold diluted cell supernatants were applied to the ELISA plate in duplicates and BiP binding was subsequently measured as described above. […]

tPA [3] = target: T3, tPA (Homo sapiens, UniProt P00750); assay: ELISA binding of β2GPI to immobilized tPA; conditions: tPA immobilized
Protocol: (§1) Binding of β2GPI was assessed with monoclonal antibody 2B2^17.

[4] = tested on: anti-β2GPI auto-antibodies from antiphospholipid syndrome patients; assay: Interference with binding of anti-β2GPI autoantibodies to immobilized β2GPI; parameters: species or system human; conditions: concentration series of β2GPI in solution
Protocol: β2GPI by recombinant β2GPI and not by plasma derived β2GPI When plasma derived β2GPI is coated onto hydrophilic ELISA plates, anti-β2GPI auto-antibodies isolated from plasma of antiphospholipid syndrome autoimmune patients can bind^18. To study the influence of coincubations of the coated β2GPI with the antibodies together with plasma β2GPI or recombinant β2GPI, concentration series of β2GPI were added to the patient antibodies. Subsequently, binding of the antibodies to coated β2GPI was determined.

tPA [5] = target: T3, tPA; assay: Plasminogen activation assay (tPA-mediated conversion of Plg to plasmin); type: biochemical; parameters: purchased Boehringer-Ingelheim Actilyse; conditions: 100 μg ml^−1 protein or peptide, 400 pM tPA, substrate S-2251
Protocol: Plasmin (Plm) activity was assayed as described^4. Peptides and proteins that were tested for their stimulatory ability were used at 100 μg ml^−1, unless stated otherwise. […] Chromogenic substrate S-2251 (Chromogenix, Instrumentation Laboratory SpA, Milano, Italy) was used to measure Pls activity.
Purification of β2-glycoprotein I (β2GPI) was performed according to established methods^15,16. Recombinant human β2GPI was made using insect cells and purified as described^15. Plasma derived β2GPI as used in a factor XII ELISA, the Plg-activation assay and in the anti-phospholipid syndrome antibody ELISA (see below), was purified from fresh human plasma as described^16. […]
Solutions of fibrin peptide FP6, NH2—IDIKIR-COOH (Peptide facility, Dutch Cancer Institute, Amsterdam, the Netherlands) were prepared in various ways. […] Separate samples were prepared similarly and analyzed by electron spray ionization mass spectrometry (ESI-MS) to obtain information on the distribution of the peptide over putatively present oligomers (Dr C. Versluis, Department of Biomolecular Mass Spectrometry, Bijvoet Center for Biomolecular Research, Utrecht University, Utrecht, The Netherlands). […] Micrographs were recorded at 80 kV, at suitable magnifications on a JEM-1200EX electron microscope (JEOL, Japan).

factor XII = target: T4, factor XII (Homo sapiens, UniProt P00748); assay: ELISA binding of β2GPI to immobilized factor XII; parameters: human factor XII from plasma (Calbiochem); purchased Calbiochem; host or cells: human plasma; conditions: factor XII immobilized
T4 sequence (P00748 20-615): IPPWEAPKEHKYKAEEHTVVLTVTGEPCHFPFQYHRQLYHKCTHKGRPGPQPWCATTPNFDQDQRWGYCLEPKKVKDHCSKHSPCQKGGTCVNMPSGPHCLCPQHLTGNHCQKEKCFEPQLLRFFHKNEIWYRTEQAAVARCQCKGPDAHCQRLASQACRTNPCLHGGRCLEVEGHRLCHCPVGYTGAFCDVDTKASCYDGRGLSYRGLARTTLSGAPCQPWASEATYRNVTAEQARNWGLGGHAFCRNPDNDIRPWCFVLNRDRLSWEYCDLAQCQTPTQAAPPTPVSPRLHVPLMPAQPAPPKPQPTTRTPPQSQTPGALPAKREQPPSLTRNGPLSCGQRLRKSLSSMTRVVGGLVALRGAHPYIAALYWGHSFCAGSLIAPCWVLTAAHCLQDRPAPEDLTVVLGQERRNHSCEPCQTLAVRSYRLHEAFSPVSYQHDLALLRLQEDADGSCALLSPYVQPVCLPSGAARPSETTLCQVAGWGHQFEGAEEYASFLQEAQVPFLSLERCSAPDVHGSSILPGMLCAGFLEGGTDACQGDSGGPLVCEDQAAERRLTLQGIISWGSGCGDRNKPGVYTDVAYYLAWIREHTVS
Protocol: as §1

T3 sequence (P00750 36-562): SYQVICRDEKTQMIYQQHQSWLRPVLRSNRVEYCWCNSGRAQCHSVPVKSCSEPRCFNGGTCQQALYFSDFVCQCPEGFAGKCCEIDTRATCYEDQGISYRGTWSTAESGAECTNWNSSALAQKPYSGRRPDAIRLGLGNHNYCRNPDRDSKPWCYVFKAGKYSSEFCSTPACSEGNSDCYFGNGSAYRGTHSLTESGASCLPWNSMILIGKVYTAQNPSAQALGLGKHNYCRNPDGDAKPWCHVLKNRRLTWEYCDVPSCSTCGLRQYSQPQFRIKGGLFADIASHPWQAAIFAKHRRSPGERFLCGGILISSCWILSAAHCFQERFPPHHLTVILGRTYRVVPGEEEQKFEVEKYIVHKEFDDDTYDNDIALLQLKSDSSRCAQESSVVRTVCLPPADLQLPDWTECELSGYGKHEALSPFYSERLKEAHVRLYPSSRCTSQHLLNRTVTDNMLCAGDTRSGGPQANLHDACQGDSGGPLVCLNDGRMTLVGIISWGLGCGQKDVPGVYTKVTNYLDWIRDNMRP
T1 sequence (P69905 2-142 limits assumed): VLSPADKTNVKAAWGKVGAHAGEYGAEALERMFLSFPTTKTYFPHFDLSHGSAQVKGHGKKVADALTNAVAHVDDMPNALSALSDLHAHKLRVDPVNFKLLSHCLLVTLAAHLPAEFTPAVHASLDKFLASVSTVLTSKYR
T1 sequence (P68871 2-147 limits assumed): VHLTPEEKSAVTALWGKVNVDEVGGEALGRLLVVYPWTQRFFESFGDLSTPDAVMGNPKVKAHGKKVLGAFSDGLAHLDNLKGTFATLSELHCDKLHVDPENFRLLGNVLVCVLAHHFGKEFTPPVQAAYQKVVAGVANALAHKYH
T2 sequence (P02769 25-607): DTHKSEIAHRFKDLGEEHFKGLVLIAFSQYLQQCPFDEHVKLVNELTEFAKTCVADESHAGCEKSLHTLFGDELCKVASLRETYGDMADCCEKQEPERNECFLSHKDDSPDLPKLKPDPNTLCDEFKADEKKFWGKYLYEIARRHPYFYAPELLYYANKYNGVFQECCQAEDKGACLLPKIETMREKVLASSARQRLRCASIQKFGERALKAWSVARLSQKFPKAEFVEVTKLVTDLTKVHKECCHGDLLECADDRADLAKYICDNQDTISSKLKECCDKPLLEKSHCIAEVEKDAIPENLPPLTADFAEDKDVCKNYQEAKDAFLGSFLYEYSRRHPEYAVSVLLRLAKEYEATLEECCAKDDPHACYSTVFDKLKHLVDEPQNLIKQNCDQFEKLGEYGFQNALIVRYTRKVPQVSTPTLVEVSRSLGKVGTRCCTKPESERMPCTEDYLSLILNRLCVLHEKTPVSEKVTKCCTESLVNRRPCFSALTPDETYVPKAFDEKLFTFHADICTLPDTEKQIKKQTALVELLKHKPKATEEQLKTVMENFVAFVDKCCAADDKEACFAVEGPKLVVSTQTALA

| Molecule | BiP binding to Hb-AGE and native haemoglobin [1] | BiP binding to BSA-AGE and native BSA [2] | kD of binding to tPA (tPA [3]) | inhibition of binding of anti-β2GPI auto-antibodies to immobilized β2GPI [4] | stimulation of tPA-mediated conversion of Plg to plasmin (tPA [5]) | kD of binding to factor XII (factor XII) |
| --- | --- | --- | --- | --- | --- | --- |
| BiP: recombinant human BiP with carboxy-terminal linker, FLAG-tag and His-tag, expressed in HEK 293E cells | binds to glycated haemoglobin (Hb-AGE) and to a lesser extent to coated native haemoglobin | binds to glycated albumin (BSA-AGE) and not to native BSA | – | – | – | – |
| B1 | – | – | 2.3 µg/mL | efficiently inhibits binding of anti-β2GPI auto-antibodies to immobilized β2GPI | stimulate tPA-mediated conversion of Plg to plasmin | 0.9 µg/mL |
